In PMC12167799, “The role of human Shu complex in ATP-dependent regulation of RAD51 filaments during homologous recombination–associated DNA damage response”:

How the values were obtained:
[1] = biological target: T1, SWSAP1 (hSWS1-SWSAP1, WT);hSWS1 (Homo sapiens;Homo sapiens, UniProt Q6NVH7;Q19AV6 22-250;1-140, |); assay: fluorescence polarization; no nucleotide; FPA: 5 nM 6-FAM DNA, 37 C, 2 mM nucleotide where stated (buffer not given in material); EMSA: 0.05 uM 6-FAM DNA, 5%/15% native PAGE; RAD51 filaments: 2 mM ATP; conditions: protein: recombinant;recombinant, tags: N-terminal 6xHis-TEV, cleaved;none, copies: 1;1
T1 sequence 1: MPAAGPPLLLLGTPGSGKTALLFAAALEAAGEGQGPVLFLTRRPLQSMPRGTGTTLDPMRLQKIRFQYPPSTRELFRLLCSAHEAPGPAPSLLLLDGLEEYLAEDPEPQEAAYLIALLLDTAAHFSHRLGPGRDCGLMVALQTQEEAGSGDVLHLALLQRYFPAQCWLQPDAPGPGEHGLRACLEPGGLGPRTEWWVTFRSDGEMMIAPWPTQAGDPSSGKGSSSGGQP
T1 sequence 2: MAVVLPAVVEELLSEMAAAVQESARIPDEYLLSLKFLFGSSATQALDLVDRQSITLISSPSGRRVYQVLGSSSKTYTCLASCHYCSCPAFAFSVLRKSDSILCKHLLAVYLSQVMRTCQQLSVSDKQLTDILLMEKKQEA

[2] = biological target: T2, SWSAP1 K18A (Walker A);hSWS1 (Homo sapiens;Homo sapiens, UniProt Q6NVH7;Q19AV6 22-250;1-140, K39A|); assay: fluorescence polarization; 2 mM ADP; FPA: 5 nM 6-FAM DNA, 37 C, 2 mM nucleotide where stated (buffer not given in material); EMSA: 0.05 uM 6-FAM DNA, 5%/15% native PAGE; RAD51 filaments: 2 mM ATP; conditions: protein: recombinant;recombinant, tags: N-terminal 6xHis-TEV, cleaved;none, copies: 1;1
T2 sequence 1: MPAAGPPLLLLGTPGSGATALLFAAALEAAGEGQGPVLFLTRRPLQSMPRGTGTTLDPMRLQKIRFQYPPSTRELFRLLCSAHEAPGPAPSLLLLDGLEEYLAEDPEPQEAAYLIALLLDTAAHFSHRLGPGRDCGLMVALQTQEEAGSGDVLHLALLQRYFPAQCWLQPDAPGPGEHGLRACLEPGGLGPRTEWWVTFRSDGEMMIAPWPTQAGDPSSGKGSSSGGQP
T2 sequence 2: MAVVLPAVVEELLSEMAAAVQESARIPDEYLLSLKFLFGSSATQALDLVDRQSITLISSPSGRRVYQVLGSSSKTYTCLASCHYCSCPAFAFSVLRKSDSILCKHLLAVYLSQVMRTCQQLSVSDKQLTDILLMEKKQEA

[3] = biological target: T3, SWSAP1 D96A (Walker B);hSWS1 (Homo sapiens;Homo sapiens, UniProt Q6NVH7;Q19AV6 22-250;1-140, D117A|); assay: as above; conditions: protein: recombinant;recombinant, tags: N-terminal 6xHis-TEV, cleaved;none, copies: 1;1
T3 sequence 1: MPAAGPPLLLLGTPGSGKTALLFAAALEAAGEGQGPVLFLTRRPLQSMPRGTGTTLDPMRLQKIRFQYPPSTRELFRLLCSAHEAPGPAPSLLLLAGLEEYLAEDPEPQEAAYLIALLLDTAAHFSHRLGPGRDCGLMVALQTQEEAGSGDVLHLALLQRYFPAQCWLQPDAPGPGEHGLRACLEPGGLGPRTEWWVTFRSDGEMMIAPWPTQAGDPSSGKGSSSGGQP
T3 sequence 2: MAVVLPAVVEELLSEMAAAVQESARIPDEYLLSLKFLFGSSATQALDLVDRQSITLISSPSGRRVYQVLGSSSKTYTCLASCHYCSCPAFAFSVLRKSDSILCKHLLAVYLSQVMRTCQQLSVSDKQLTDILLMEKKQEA

[4] = biological target: T1, SWSAP1 (hSWS1-SWSAP1, WT);hSWS1; assay: as above; conditions: protein: recombinant;recombinant, tags: N-terminal 6xHis-TEV, cleaved;none, copies: 1;1
[5] = biological target: T2, SWSAP1 K18A (Walker A);hSWS1; assay: fluorescence polarization; 2 mM ATP; FPA: 5 nM 6-FAM DNA, 37 C, 2 mM nucleotide where stated (buffer not given in material); EMSA: 0.05 uM 6-FAM DNA, 5%/15% native PAGE; RAD51 filaments: 2 mM ATP; conditions: protein: recombinant;recombinant, tags: N-terminal 6xHis-TEV, cleaved;none, copies: 1;1
[6] = biological target: T3, SWSAP1 D96A (Walker B);hSWS1; assay: as above; conditions: protein: recombinant;recombinant, tags: N-terminal 6xHis-TEV, cleaved;none, copies: 1;1
[7] = biological target: T1, SWSAP1 (hSWS1-SWSAP1, WT);hSWS1; assay: as above; conditions: protein: recombinant;recombinant, tags: N-terminal 6xHis-TEV, cleaved;none, copies: 1;1
[8] = biological target: T2, SWSAP1 K18A (Walker A);hSWS1; assay: fluorescence polarization; no nucleotide; FPA: 5 nM 6-FAM DNA, 37 C, 2 mM nucleotide where stated (buffer not given in material); EMSA: 0.05 uM 6-FAM DNA, 5%/15% native PAGE; RAD51 filaments: 2 mM ATP; conditions: protein: recombinant;recombinant, tags: N-terminal 6xHis-TEV, cleaved;none, copies: 1;1
[9] = biological target: T3, SWSAP1 D96A (Walker B);hSWS1; assay: as above; conditions: protein: recombinant;recombinant, tags: N-terminal 6xHis-TEV, cleaved;none, copies: 1;1
RAD51 [10] = biological target: T4, RAD51 (Homo sapiens, UniProt Q06609 1-339); assay: DNase I protection; 2 mM ATP; FPA: 5 nM 6-FAM DNA, 37 C, 2 mM nucleotide where stated (buffer not given in material); EMSA: 0.05 uM 6-FAM DNA, 5%/15% native PAGE; RAD51 filaments: 2 mM ATP; conditions: protein: recombinant, tags: none, chain copies: 10
T4 sequence (Q06609 whole entry): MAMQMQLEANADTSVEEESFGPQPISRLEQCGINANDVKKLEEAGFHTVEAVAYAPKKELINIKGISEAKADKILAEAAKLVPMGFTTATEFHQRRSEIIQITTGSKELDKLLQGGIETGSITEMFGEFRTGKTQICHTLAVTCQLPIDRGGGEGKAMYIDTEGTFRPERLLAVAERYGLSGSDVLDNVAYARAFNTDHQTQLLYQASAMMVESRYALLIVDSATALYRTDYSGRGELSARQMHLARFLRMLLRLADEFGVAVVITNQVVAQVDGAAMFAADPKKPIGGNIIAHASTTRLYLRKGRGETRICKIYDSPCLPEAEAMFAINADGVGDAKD

[11] = biological target: T5, RAD51;SWSAP1 (hSWS1-SWSAP1, WT);hSWS1 (Homo sapiens;Homo sapiens;Homo sapiens, UniProt Q06609;Q6NVH7;Q19AV6 1-339;22-250;1-140, ||); assay: DNase I protection; 2 mM ATP; Shu increases digestion of filament; FPA: 5 nM 6-FAM DNA, 37 C, 2 mM nucleotide where stated (buffer not given in material); EMSA: 0.05 uM 6-FAM DNA, 5%/15% native PAGE; RAD51 filaments: 2 mM ATP; conditions: protein: recombinant;recombinant;recombinant, tags: none;N-terminal 6xHis-TEV, cleaved;none
T5 sequence (Q06609 whole entry, one chain of several): as the sequence (Q06609 whole entry) above

[12] = biological target: RAD51;SWSAP1 D96A (Walker B);hSWS1 (Homo sapiens;Homo sapiens;Homo sapiens, UniProt Q06609;Q6NVH7;Q19AV6 1-339;22-250;1-140, |D117A|); assay: competition (fluorescence intensity); 2 mM ATP; D96A stabilizes 5' end like WT; FPA: 5 nM 6-FAM DNA, 37 C, 2 mM nucleotide where stated (buffer not given in material); EMSA: 0.05 uM 6-FAM DNA, 5%/15% native PAGE; RAD51 filaments: 2 mM ATP; conditions: protein: recombinant;recombinant;recombinant; tags: none;N-terminal 6xHis-TEV, cleaved;none; label: 5' 6-FAM
RAD51;SWSAP1 D96A (Walker B);hSWS1, sequence (Q06609 whole entry, stated change not applied, one chain of several): as the sequence (Q06609 whole entry) above

[13] = biological target: T5, RAD51;SWSAP1 (hSWS1-SWSAP1, WT);hSWS1; assay: competition (fluorescence intensity); 2 mM ATP; Shu inhibits exchange at 5' end; FPA: 5 nM 6-FAM DNA, 37 C, 2 mM nucleotide where stated (buffer not given in material); EMSA: 0.05 uM 6-FAM DNA, 5%/15% native PAGE; RAD51 filaments: 2 mM ATP; conditions: protein: recombinant;recombinant;recombinant; tags: none;N-terminal 6xHis-TEV, cleaved;none; label: 5' 6-FAM
RAD51 [14] = biological target: T4, RAD51; assay: competition (fluorescence intensity); 2 mM ATP; 100x unlabeled dT39 lowers signal ~30%; FPA: 5 nM 6-FAM DNA, 37 C, 2 mM nucleotide where stated (buffer not given in material); EMSA: 0.05 uM 6-FAM DNA, 5%/15% native PAGE; RAD51 filaments: 2 mM ATP; conditions: protein: recombinant, tags: none, chain copies: 10
[15] = label: 3' 6-FAM on strand 1, fork 1:2, 19 bp duplex, 20 nt arms
[16] = label: 3' 6-FAM on strand 1, 5' overhang 20 nt
[17] = label: 3' 6-FAM on strand 1, blunt
[18] = label: 3' 6-FAM on strand 1, 3' overhang 20 nt
[19] = label: 5' 6-FAM on strand 1, blunt

ACTTACAGCACAGCGGTTTTT (ssDNA) [ss21]
Kd ([1]; label: 5' 6-FAM): 10.1 ± 0.9 µM

ACTGCCCTTACAGCACAGCGGTTTTT (ssDNA) [ss26]
Kd ([1]; label: 5' 6-FAM): 9.9 ± 0.6 µM

TTTTTTTTTTTTTTTTTTTTCTTGACAAGCTTGCGCACT (ssDNA) [ss39]
Kd ([2]; label: 3' 6-FAM): 7.4 ± 0.2 µM
Kd ([3]; label: 3' 6-FAM): 3.9 ± 0.3 µM
Kd ([4]; label: 3' 6-FAM): 3.2 ± 0.2 µM
Kd ([5]; label: 3' 6-FAM): 9.5 ± 0.7 µM
Kd ([6]; label: 3' 6-FAM): 7.8 ± 0.4 µM
Kd ([7]; label: 3' 6-FAM): 6.9 ± 0.7 µM
Kd ([8]; label: 3' 6-FAM): 9.9 ± 0.4 µM
Kd ([9]; label: 3' 6-FAM): 10.4 ± 0.7 µM
Kd ([1]; label: 3' 6-FAM): 11.2 ± 0.4 µM

B1: Fork (dsDNA)
DNA 1: TTTTTTTTTTTTTTTTTTTTCTTGACAAGCTTGCGCACT
DNA 2: AGTGCGCAAGCTTGTCAAGGCACTTTTTTTTTTTTTTTT
Kd [2, 15]: 7 ± 0.8 µM
Kd [3, 15]: 33.9 ± 0.9 µM
Kd [4, 15]: 25.6 ± 0.7 µM
Kd [5, 15]: 8.2 ± 0.4 µM
Kd [6, 15]: 22.4 ± 0.4 µM
Kd [7, 15]: 18.6 ± 0.7 µM
Kd [8, 15]: 4.6 ± 0.4 µM
Kd [9, 15]: 7.4 ± 0.4 µM
Kd [1, 15]: 7.7 ± 0.5 µM

B2: 5'-overhang (dsDNA)
DNA 1: TTTTTTTTTTTTTTTTTTTTCTTGACAAGCTTGCGCACT
DNA 2: AGTGCGCAAGCTTGTCAAG
Kd [2, 16]: 3.4 ± 0.3 µM
Kd [3, 16]: 5.1 ± 0.2 µM
Kd [4, 16]: 8.9 ± 0.4 µM
Kd [5, 16]: 3.9 ± 0.2 µM
Kd [6, 16]: 4.3 ± 0.4 µM
Kd [7, 16]: 3.6 ± 0.1 µM
Kd [8, 16]: 3.9 ± 0.3 µM
Kd [9, 16]: 3.8 ± 0.2 µM
Kd [1, 16]: 3.6 ± 0.2 µM

ACTGCCCTTACAGCACAGCGGTTTTTTTTTT (ssDNA) [ss31]
Kd ([1]; label: 5' 6-FAM): 5.7 ± 0.3 µM

B3: ds39 (dsDNA)
DNA 1: TTTTTTTTTTTTTTTTTTTTCTTGACAAGCTTGCGCACT
DNA 2: AGTGCGCAAGCTTGTCAAGAAAAAAAAAAAAAAAAAAAA
Kd [2, 17]: 8.73 ± 0.7 µM
Kd [5, 17]: 10 ± 0.9 µM
Kd [8, 17]: 12.2 ± 1 µM
Kd [9, 17]: 13.6 ± 0.6 µM
Kd [1, 17]: 19.2 ± 0.9 µM

B4: 3'-overhang (dsDNA)
DNA 1: CTTGACAAGCTTGCGCACT
DNA 2: AGTGCGCAAGCTTGTCAAGGCACTTTTTTTTTTTTTTTT
Kd [2, 18]: 8.7 ± 0.4 µM
Kd [5, 18]: 7.3 ± 0.6 µM
Kd [8, 18]: 7.1 ± 0.2 µM
Kd [9, 18]: 11 ± 0.8 µM
Kd [1, 18]: 14.9 ± 0.7 µM

B5: ds21 (dsDNA)
DNA 1: ACTTACAGCACAGCGGTTTTT
DNA 2: AAAAACCGCTGTGCTGTAAGT
Kd [1, 19]: 43.7 ± 0.4 µM

B6: ds26 (dsDNA)
DNA 1: ACTGCCCTTACAGCACAGCGGTTTTT
DNA 2: AAAAACCGCTGTGCTGTAAGGGCAGT
Kd [1, 19]: 18.8 ± 0.7 µM

TTTTTTTTTTTTTTTTTTTTTTTTTTTTTT (ssDNA) [*5'-(T)30]
binding result (RAD51 [10]; label: 5' 6-FAM): binds
binding result ([11]; label: 5' 6-FAM): binds

TTTTTTTTTTTTTTTTTTTTTTTTTTTTTT (ssDNA) [*3'-(T)30]
binding result (RAD51 [10]; label: 3' 6-FAM): binds
binding result ([11]; label: 3' 6-FAM): binds

TTTTTTTTTTTTTTTTTTTTTTTTTTTTTTTTTTTTTTT (ssDNA) [*5'-(T)39]
binding result [12]: binds
binding result [13]: binds
binding result (RAD51 [14]; label: 5' 6-FAM): binds

TTTTTTTTTTTTTTTTTTTTTTTTTTTTTTTTTTTTTTT (ssDNA) [*3'-(T)39]
binding result (RAD51 [14]; label: 3' 6-FAM): binds
